# Assay results as given in patent US20210087281A1 (AGOMAB THERAPEUTICS, published 2021).
# Legend:
# human MET ECD [1] = target: T1, human MET ECD (human, UniProt P08581 25-932); test: ELISA, MET ECD in solid phase, mAb 0-50 nM
# T1 construct: range 1-932; recombinant ECD made by the applicants; the stated range begins at residue 1, so it includes the signal peptide of the entry; also called hMET; hMET ECD
# Method: Using human MET as a template, we mutagenized each of these residues in different permutations, generating a series of MET mutants that are fully human except for specific residues, which are llama. Next, we tested the affinity of selected SEMA-binding mAbs (71D6, 71C3, 71D4, 71A3, 71G2) and PSI-binding mAbs (76H10 and 71G3) for these MET mutants by ELISA. To this end, the various MET proteins were immobilized in solid phase (100 ng/well in a 96-well plate) and then exposed to increasing concentrations of antibodies (0-50 nM) solution. […] Wild-type human MET was used as positive control.
# TABLE 18 The epitopes of MET responsible for agonistic antibody binding represent residues conserved among H. sapiens, M. musculus, R. norvegicus, M. fascicularis but not among the same species and L. glama. The relevance of residues conserved among human, mouse, rat, cynomolgus monkey but not llama MET for binding to agonistic mAbs was tested by ELISA. Wild-type (WT) or mutant (MT) human MET ECD was immobilized in solid phase and exposed to increasing concentrations of mAbs in solution. […] All binding values were normalized to the WT protein and are expressed as % binding (EMAX) compared to WT MET.
# [2] = target: T2, native human MET on living cells (human, UniProt P08581 25-1390); test: flow cytometry, A549 cells
# T2 construct: whole, on cells; also called Human cells (A549); HPAF-II
# T2 sequence (P08581 25-1390): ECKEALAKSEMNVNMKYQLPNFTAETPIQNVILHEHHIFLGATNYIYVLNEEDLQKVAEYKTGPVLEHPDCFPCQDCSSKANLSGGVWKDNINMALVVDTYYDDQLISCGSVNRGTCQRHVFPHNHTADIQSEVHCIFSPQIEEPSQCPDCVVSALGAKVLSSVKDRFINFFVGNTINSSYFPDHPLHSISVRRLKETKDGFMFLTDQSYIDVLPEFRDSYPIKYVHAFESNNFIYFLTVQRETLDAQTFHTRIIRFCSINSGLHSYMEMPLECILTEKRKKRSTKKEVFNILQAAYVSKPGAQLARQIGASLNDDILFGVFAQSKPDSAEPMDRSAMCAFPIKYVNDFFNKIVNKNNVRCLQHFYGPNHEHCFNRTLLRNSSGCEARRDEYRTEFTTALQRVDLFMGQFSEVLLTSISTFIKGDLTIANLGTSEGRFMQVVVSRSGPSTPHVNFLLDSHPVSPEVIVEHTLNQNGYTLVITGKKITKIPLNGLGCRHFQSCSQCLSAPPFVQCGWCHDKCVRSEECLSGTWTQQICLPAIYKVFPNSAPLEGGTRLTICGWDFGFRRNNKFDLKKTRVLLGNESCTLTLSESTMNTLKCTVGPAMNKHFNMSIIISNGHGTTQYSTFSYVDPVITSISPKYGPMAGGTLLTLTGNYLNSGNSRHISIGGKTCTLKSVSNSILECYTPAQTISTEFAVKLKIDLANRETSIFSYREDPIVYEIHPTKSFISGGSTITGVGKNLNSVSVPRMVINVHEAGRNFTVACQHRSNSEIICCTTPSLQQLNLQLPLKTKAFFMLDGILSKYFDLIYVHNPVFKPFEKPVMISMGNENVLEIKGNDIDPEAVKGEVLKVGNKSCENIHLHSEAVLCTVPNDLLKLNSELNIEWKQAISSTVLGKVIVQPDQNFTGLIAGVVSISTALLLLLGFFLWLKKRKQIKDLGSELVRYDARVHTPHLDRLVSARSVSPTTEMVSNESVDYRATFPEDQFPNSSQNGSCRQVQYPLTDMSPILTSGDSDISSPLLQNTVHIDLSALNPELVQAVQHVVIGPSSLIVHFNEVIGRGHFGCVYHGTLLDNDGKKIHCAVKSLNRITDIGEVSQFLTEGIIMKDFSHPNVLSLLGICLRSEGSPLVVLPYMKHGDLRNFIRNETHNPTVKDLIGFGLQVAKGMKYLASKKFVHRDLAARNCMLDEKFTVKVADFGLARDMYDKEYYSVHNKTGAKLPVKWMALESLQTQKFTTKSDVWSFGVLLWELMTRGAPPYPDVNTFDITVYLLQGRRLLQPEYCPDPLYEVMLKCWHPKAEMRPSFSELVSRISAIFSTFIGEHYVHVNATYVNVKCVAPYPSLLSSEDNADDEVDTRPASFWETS
# Method in brief: (§1)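 Detection used a phycoerythrin-labelled anti-human IgG1 secondary and flow cytometry, measuring binding of chimeric antibodies to native MET on live A549 (human) or MLP29 (mouse) cells. Positive controls were a mouse anti-human MET and a goat anti-mouse MET antibody, each with a PE-labelled secondary.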
# [3] = target: T3, native mouse MET on living cells (mouse, UniProt P16056 25-1379); test: cell-based or functional assay
# [4] = target: T2, native human MET on living cells; test: cell-based or functional assay
# mouse MET ECD = target: T4, mouse MET ECD (mouse, UniProt P16056 25-931); test: ELISA, MET ECD in solid phase, mAb 0-20 nM
# T4 construct: range 1-931; recombinant ECD made by the applicants; the stated range begins at residue 1; also called mMET; mMET ECD
# Method in brief: (§2)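 Solid-phase ELISA; analyte = protein A-purified chimeric llama/human IgG1 from transient mammalian transfection, titrated in solution onto immobilized MET ECD.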
# human MET ECD [5] = target: T1, human MET ECD; test: ELISA, MET ECD in solid phase, mAb 0-20 nM
# Method in brief: as §2
# [6] = target: T3, native mouse MET on living cells; test: cell-based or functional assay; remark: listed apart in the source
# [7] = target: T2, native human MET on living cells; test: cell-based or functional assay; remark: listed apart in the source
# [8] = target: T5, human MET-Fc (R&D Systems) (human, UniProt P08581 25-932); test: competition ELISA, hMET-Fc in solid phase, competitor 0.3 nM biotinylated hHGF
# T5 construct: extracellular domain; bought chimeric protein; also called hMET; not shown: Fc portion of human IgG1
# T5 sequence (P08581 25-932): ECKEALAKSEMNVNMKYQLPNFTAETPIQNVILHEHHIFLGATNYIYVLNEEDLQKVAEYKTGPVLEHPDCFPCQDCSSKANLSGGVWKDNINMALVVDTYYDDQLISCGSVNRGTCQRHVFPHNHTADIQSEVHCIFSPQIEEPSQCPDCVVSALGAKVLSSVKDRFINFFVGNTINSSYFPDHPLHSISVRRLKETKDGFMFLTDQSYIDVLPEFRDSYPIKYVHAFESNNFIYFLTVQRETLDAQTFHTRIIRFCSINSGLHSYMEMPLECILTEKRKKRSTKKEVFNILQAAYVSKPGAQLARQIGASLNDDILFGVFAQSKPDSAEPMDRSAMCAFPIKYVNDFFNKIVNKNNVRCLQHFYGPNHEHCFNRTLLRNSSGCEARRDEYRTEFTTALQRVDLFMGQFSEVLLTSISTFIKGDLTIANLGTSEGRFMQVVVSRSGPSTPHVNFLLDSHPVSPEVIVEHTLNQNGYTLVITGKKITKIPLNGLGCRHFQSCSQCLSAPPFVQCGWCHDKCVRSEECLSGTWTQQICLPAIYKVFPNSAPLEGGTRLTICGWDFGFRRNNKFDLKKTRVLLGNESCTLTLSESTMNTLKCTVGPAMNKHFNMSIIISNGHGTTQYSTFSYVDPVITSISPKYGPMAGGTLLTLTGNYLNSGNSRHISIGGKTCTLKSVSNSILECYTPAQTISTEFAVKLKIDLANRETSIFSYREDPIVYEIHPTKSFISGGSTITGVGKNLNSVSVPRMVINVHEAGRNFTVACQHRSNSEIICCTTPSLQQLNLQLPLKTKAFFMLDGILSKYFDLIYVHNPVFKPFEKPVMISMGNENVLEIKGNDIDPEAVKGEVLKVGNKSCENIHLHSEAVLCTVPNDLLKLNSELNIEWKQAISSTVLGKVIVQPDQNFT
# Method in brief: (§3)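 An ELISA format measured how well mAbs (0-120 nM) displaced N-terminus-biotinylated HGF from plate-bound receptor. Results are given as the concentration producing 50% competition and as IMAX, the saturating maximum percentage.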
# [9] = target: T6, mouse MET-Fc (R&D Systems) (mouse, UniProt P16056 25-929, limits assumed); test: competition ELISA, mMET-Fc in solid phase, competitor 0.3 nM biotinylated mHGF
# T6 construct: bought chimeric protein; also called mMET; not shown: Fc part
# Method in brief: as §3
# [10] = target: T3, native mouse MET on living cells; test: flow cytometry, MLP29 cells
# Method in brief: as §1
# [11] = target: T3, native mouse MET on living cells; test: cell-based or functional assay; remark: listed apart in the source
# [12] = target: T2, native human MET on living cells; test: cell-based or functional assay; remark: listed apart in the source
# [13] = target: T3, native mouse MET on living cells; test: cell-based or functional assay; remark: listed apart in the source
# [14] = target: T2, native human MET on living cells; test: cell-based or functional assay; remark: listed apart in the source
# [15] = target: human MET ECD mutant H (mutations 2, 4) (human) (UniProt P08581); test: ELISA, MET ECD in solid phase, mAb 0-50 nM
# [16] = target: human MET ECD mutant E (mutations 2, 3, 4) (human) (UniProt P08581); test: ELISA, MET ECD in solid phase, mAb 0-50 nM
# [17] = target: human MET ECD mutant D (mutations 1, 2) (human) (UniProt P08581); test: ELISA, MET ECD in solid phase, mAb 0-50 nM
# [18] = target: human MET ECD mutant A (mutations 1, 2, 3) (human) (UniProt P08581); test: ELISA, MET ECD in solid phase, mAb 0-50 nM
# T1 sequence (P08581 25-932 limits assumed, form in doubt): as the sequence (P08581 25-932) above
binder,measurement,setting,value
"71C3 chimeric llama-human IgG1 mAb (antibody, V domains shown, llama VH on human IgG1 CH1-CH2-CH3, llama VL on human lambda CL) VH: QLQLVESGGGLVQPGGSLRLSCAASGFTFSSHAMSWVRQAPGKGLEWVSAINSGGGSTSYADSVKGRFTISRDNAKNTLYLQMNSLKPEDTAVYYCAKELRFDLARYTDYEAWDYWGQGTQVTVSS VL: SYELTQPSALSVTLGQTAKITCQGGSLGSSYAHWYQQKPGQAPVLVIYDDDSRPSGIPERFSGSSSGGTATLTISGAQAEDEGDYYCQSADSSGNAAVFGGGTHLTVL",% binding (EMAX) compared to WT MET,human MET ECD [1],100 % WT MET ECD
same,EC50,[2],0.572 nM
same,EMAX,[2],106 % relative to control
same,"protection from staurosporine, viability EC50, MLP29 cells",[3],31 nM
same,"protection from staurosporine, viability EMAX, MLP29 cells",[3],51.3%
same,"protection from staurosporine, viability EC50, MCF10A cells",[4],31.9 nM
same,"protection from staurosporine, viability EMAX, MCF10A cells",[4],50.2%
same,EC50,mouse MET ECD,0.293 nM
same,EMAX (OD450),mouse MET ECD,2.24 AU
same,EC50,human MET ECD [5],0.203 nM
same,EMAX (OD450),human MET ECD [5],2.46 AU
same,"phospho-MET ELISA EC50, MLP29 cells",[6],0.33 nM
same,"phospho-MET ELISA EMAX (% HGF activity), MLP29 cells",[6],98.8%
same,"phospho-MET ELISA EC50, A549 cells",[7],0.35 nM
same,"phospho-MET ELISA EMAX (% HGF activity), A549 cells",[7],86.2%
same,IC50,[8],1.42 nM
same,IMAX,[8],93.6%
same,IC50,[9],1.56 nM
same,IMAX,[9],89.2%
same,EC50,[10],0.585 nM
same,EMAX,[10],115 % relative to control
same,"branches per spheroid, MLP29 cells, 0.5 nM",[11],11.7 branches
same,"branches per spheroid, MLP29 cells, 2.5 nM",[11],15.7 branches
same,"branches per spheroid, MLP29 cells, 12.5 nM",[11],24.7 branches
same,"branches per spheroid, LOC cells, 0.5 nM",[12],8.7 branches
same,"branches per spheroid, LOC cells, 2.5 nM",[12],12.7 branches
same,"branches per spheroid, LOC cells, 12.5 nM",[12],15.7 branches
same,"scatter score 0-4, MLP29, 0.001 nM",[13],0 score
same,"scatter score 0-4, MLP29, 0.004 nM",[13],0 score
same,"scatter score 0-4, MLP29, 0.012 nM",[13],0 score
same,"scatter score 0-4, MLP29, 0.037 nM",[13],0 score
same,"scatter score 0-4, MLP29, 0.111 nM",[13],1 score
same,"scatter score 0-4, MLP29, 0.333 nM",[13],2 score
same,"scatter score 0-4, MLP29, 1.000 nM",[13],3 score
same,"scatter score 0-4, MLP29, 3.000 nM",[13],4 score
same,"scatter score 0-4, MLP29, 9.000 nM",[13],4 score
same,"scatter score 0-4, HPAF-II, 0.001 nM",[14],0 score
same,"scatter score 0-4, HPAF-II, 0.004 nM",[14],0 score
same,"scatter score 0-4, HPAF-II, 0.012 nM",[14],0 score
same,"scatter score 0-4, HPAF-II, 0.037 nM",[14],0 score
same,"scatter score 0-4, HPAF-II, 0.111 nM",[14],1 score
same,"scatter score 0-4, HPAF-II, 0.333 nM",[14],2 score
same,"scatter score 0-4, HPAF-II, 1.000 nM",[14],3 score
same,"scatter score 0-4, HPAF-II, 3.000 nM",[14],4 score
same,"scatter score 0-4, HPAF-II, 9.000 nM",[14],4 score
same,% binding (EMAX) compared to WT MET,[15],61.6 % WT MET ECD
same,% binding (EMAX) compared to WT MET,[16],59.6 % WT MET ECD
same,% binding (EMAX) compared to WT MET,[17],102 % WT MET ECD
same,% binding (EMAX) compared to WT MET,[18],99.8 % WT MET ECD
